Assay results taken from patent US20210261667A1.

Columns and labels:
[1] = target: PD-L1 expressed on the cell surface (HEK293F transiently transfected; A375/PD-L1 stably transfected cells) (UniProt Q9NZQ7); experiment: flow cytometry blocking assay on A375/PD-L1 cells; blocked ligand hPD-1(ECD)-Fc-Biotin, SA-PE detection, MFI [table, row 1]
[2] = target: PD-L1 expressed on the cell surface (HEK293F transiently transfected; A375/PD-L1 stably transfected cells) (UniProt Q9NZQ7); experiment: flow cytometry blocking assay on A375/PD-L1 cells; blocked ligand hPD-1(ECD)-Fc-Biotin, SA-PE detection [column 0.5 ug/ml]
[3] = target: PD-L1 expressed on the cell surface (HEK293F transiently transfected; A375/PD-L1 stably transfected cells) (UniProt Q9NZQ7); experiment: flow cytometry blocking assay on A375/PD-L1 cells; blocked ligand hPD-1(ECD)-Fc-Biotin, SA-PE detection [column 0.005 ug/ml]
[4] = target: PD-L1 expressed on the cell surface (HEK293F transiently transfected; A375/PD-L1 stably transfected cells) (UniProt Q9NZQ7); experiment: flow cytometry blocking assay on A375/PD-L1 cells; blocked ligand hPD-1(ECD)-Fc-Biotin, SA-PE detection [column 0.05 ug/ml]
[5] = target: PD-L1 expressed on the cell surface (HEK293F transiently transfected; A375/PD-L1 stably transfected cells) (UniProt Q9NZQ7); experiment: flow cytometry blocking assay on A375/PD-L1 cells; blocked ligand hPD-1(ECD)-Fc-Biotin, SA-PE detection; no concentration printed for this panel, which stands above the 0.5 ug/ml column
[6] = target: PD-L1 expressed on the cell surface (HEK293F transiently transfected; A375/PD-L1 stably transfected cells) (UniProt Q9NZQ7); experiment: flow cytometry blocking assay on HEK293F cells transiently transfected with PD-L1; blocked ligand hPD-1 biotin, SA-PE detection

Chain of PD-L1 expressed on the cell surface (HEK293F transiently transfected; A375/PD-L1 stably transfected cells) (Q9NZQ7 19-290 limits assumed): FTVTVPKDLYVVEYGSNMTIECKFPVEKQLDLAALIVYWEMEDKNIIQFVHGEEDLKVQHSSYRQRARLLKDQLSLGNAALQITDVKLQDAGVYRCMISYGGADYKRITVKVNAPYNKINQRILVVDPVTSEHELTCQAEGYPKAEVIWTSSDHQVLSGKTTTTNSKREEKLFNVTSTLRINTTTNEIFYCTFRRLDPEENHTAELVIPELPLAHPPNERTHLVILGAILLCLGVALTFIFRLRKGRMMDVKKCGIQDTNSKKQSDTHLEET

IC50 [1] [µg/mL] | Q2 % (cells still positive for hPD-1(ECD)-Fc-Biotin) at 0.5 ug/ml antibody [2] [%] | Q2 % (cells still positive for hPD-1(ECD)-Fc-Biotin) at 0.005 ug/ml antibody [3] [%] | Q2 % (cells still positive for hPD-1(ECD)-Fc-Biotin) at 0.05 ug/ml antibody [4] [%] | Q2 % (cells still positive for hPD-1(ECD)-Fc-Biotin with the antibody present) [5] [%] | Q2 % (cells still positive for PD-1-biotin with the antibody present) [6] [%] | Substance
0.456 | 11.8 | 86 | 85.3 |  |  | Tecentriq (antibody)
 |  |  |  | 85.9 | 86.2 | negative control antibody
